From the nanobody polyreactivity screen of Harvey et al. (2022)

Test: yeast display, Sf9 membrane polyspecificity reagent, FACS + sequencing; frameworks hold sequencing errors
Summary of the method: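 Using colony PCR, genes from sorted yeast display clones were amplified, then sequenced on MiSeq at 2 × 250 and filtered by CDR length. The clones had been stained with 10% biotinylated, detergent-solubilized Sf9 membrane reagent for 1 hour at 4 °C and sorted by FACS into low and high (top ~1%) gates on anti-HA and streptavidin fluorescence. Polyreactivity labels come from the gate of origin.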

For “QVQLVESGGGLVQAGGSLRLSCAASGFIFSGNAMGWYILAPGKERELVAGIRSLGGTTSYADSVKGRFTISRDNAKNTVYLQMNSMKPEDTAVYYCAAGYGAEFDYWGQGTQVTVSS”, which “polyreactivity (PSR sort gate)” value is on record?
The value was “low polyreactivity”.

With “QVQLVESGGGLVQAGGSLRLSCAASGFIFSGNAMGWYRQAPGKERELVAAISWSGTSTFYADSVKGRFTISRDNAKNTVYLQMNSLKPEDTAVYYCAAETYYSYWYRPHYDYWGQGTQVTVSS” as the sequence, how does the “polyreactivity (PSR sort gate)” value read?
Its value is “low polyreactivity”.

With “QVQLVESGGGLVQAGGSLRLSCAASGFIFSGYAMGWYRQAPGKERELVAAITWSGSNTFYADSVKGRFTISRDNPKNTVYLQMNSLKPEDTAVYYCNGVSKYIRSDYYYWGQGTQVTVSS” as the sequence, how does the “polyreactivity (PSR sort gate)” value read?
The value was “high polyreactivity”.

With “QVQLVESGGGLVQAGGSLRLSCAASGFIFSGYAMGWYRQAPGKERELVASISWSGARTNYADSVKGRFTISRDNAKNTVYLQMNSLKPEDTAVYYCAAQVGRGYEVYPVYKYGYWGQGTQVTVSS” as the sequence, how does the “polyreactivity (PSR sort gate)” value read?
The value was “high polyreactivity”.

For “QVQLVESGGGLVQAGGSLRLSCAASGFIFSGYAMGWYRQAPGKEREVVATISRGGSTTYYADSVKGRFTISRDNAKNTVYLQKTSLKPEETGAYYCATVGYPYRPVYIRRPYRYNSWGQGTQVTVSS”, which “polyreactivity (PSR sort gate)” value is on record?
Its value is “high polyreactivity”.

For “QVQLVESGGGLVQAGGSLRLSCAASGFIFSGYNMGWYRQAPGKERELVAAITKRGGRTYYADSVKWRFTISRDNAKNTVYLQMNSLKPEDTAVYYCNVDVKVYSDETTDGDYWGQGTQVTVSS”, which “polyreactivity (PSR sort gate)” value is on record?
The value was “high polyreactivity”.

Which “polyreactivity (PSR sort gate)” value does the source give for “QVQLVESGGGLVQAGGSLRLSCAASGFIFSHYAMGWYRQAPGKERELVAAIRSGGTTNYADSVKGRFTISRDNAKHTVYLQMNSLKPEDTAVYYCAASSRRSWTYDYWGQGTQVTVSS” here?
The value was “high polyreactivity”.

Which “polyreactivity (PSR sort gate)” value does the source give for “QVQLVESGGGLVQAGGSLRLSCAASGFIFSIYAMGWYRQAPGKERELVAAISKSGGRTYYADSVKGRFTISRDNAKNTVYLQMNSLKPEDTAVYYCAVDPYYKYDYWGQGTQVTVSS” here?
Its value is “high polyreactivity”.

For “QVQLVESGGGLVQAGGSLRLSCAASGFIFSNYAMGWYRQAPGKERELVAAISWSGGNTYYADSVKGRFTISRDNAKNTFYLQMNSLKPEDTAVYYCNRVKAYYRWFLPRYQYNYWGQGTQVTVSS”, which “polyreactivity (PSR sort gate)” value is on record?
The value was “high polyreactivity”.

Which “polyreactivity (PSR sort gate)” value does the source give for “QVQLVESGGGLVQAGGSLRLSCAASGFIFSPYAMGWYRQAPGKERELVAAISSGVGTRTYYADSVKGRFTISRDNAKNNVYLQINSLKPEDTAVYYCAARIPAWRAAERGGYWGQGTQVTVSS” here?
The value was “high polyreactivity”.

With “QVQLVESGGGLVQAGGSLRLSCAASGFIFSRNVMGWYRQAPGKERELVAAISRSGGSTYYADSVKGRFTISRDNAKNTVYLQMNSLKTEYTAVYYCAASRINNVYLLKGDYWGQGTQVTVSS” as the sequence, how does the “polyreactivity (PSR sort gate)” value read?
Its value is “high polyreactivity”.

Which “polyreactivity (PSR sort gate)” value does the source give for “QVQLVESGGGLVQAGGSLRLSCAASGFIFSRYAMGWYRQAPGKERELVAAINLSGTSTYYADSVKGRFTISRDNAKNTVYLQMNSLKPEDTAVYYCAATSSYIYPYGYWGQGTQVTVSS” here?
The value was “high polyreactivity”.

For “QVQLVESGGGLVQAGGSLRLSCAASGFIFSRYAMGWYRQAPGKERELVAAISDYGGRTYYADSVKGRFTISRDNAKNTVYLQMNSLKPEDTAVYYCAADLEGYYPYEYWGQGTKVTVSS”, which “polyreactivity (PSR sort gate)” value is on record?
The value was “high polyreactivity”.

With “QVQLVESGGGLVQAGGSLRLSCAASGFIFSRYAMGWYRQAPGKERELVAAISRGGSTYYADYVKGRFTISRDNAKNTVYLQMNSLKPEDTAVYYCAVRQIVRYYYWGQGTQVTVSS” as the sequence, how does the “polyreactivity (PSR sort gate)” value read?
Its value is “high polyreactivity”.

For “QVQLVESGGGLVQAGGSLRLSCAASGFIFSRYAMGWYRQAPGKERELVAAISSGGRTNYADSVKGRFTISRDNAKNTVYLQMNSLKPEDTAVYFCAALLRGRSGQFEYDYWGQGTQVTVSS”, which “polyreactivity (PSR sort gate)” value is on record?
Its value is “low polyreactivity”.

With “QVQLVESGGGLVQAGGSLRLSCAASGFIFSRYGMGWYRQAPGKERELVAAISRTGGSTYYADSVKGRFTISRDNAKNTVYFQMNSLKPEDTAVYYCATAYSWRNADWFAYSYDYWGQGTQVTVSS” as the sequence, how does the “polyreactivity (PSR sort gate)” value read?
The value was “low polyreactivity”.

For “QVQLVESGGGLVQAGGSLRLSCAASGFIFSRYVMGWYRQAPGKEREFVAAISSSGGSTYYADSVKGRFTISRDNAKNTVYLQMNSLKPEDTAVYYCATRLGRYYRVGFDYWGQGNQVTVSS”, which “polyreactivity (PSR sort gate)” value is on record?
The value was “high polyreactivity”.

Which “polyreactivity (PSR sort gate)” value does the source give for “QVQLVESGGGLVQAGGSLRLSCAASGFIFSSYAMGWYRQAPGKERELVAAISWSDSSTYYADSVKGRFTISRDNSKNTVYLQMTSLKPEDTAVYYCNVEVAESYDYWGQGTQVTVSS” here?
The value was “low polyreactivity”.

Which “polyreactivity (PSR sort gate)” value does the source give for “QVQLVESGGGLVQAGGSLRLSCAASGFIFSSYAMGWYRQAPGKERELVAAITRNGGSTYYADSVKGRFTISRDNAKNTVYLQMNSLKPEDTAVYYCAAPRWRGVGRFDYWGQGTQVTVSS” here?
Its value is “high polyreactivity”.

For “QVQLVESGGGLVQAGGSLRLSCAASGFIFSSYAMGWYRQAPGKERELVAAITVRAGRTYYADSVKGRFTISRDNATNTVYFQMNSVKAEDTAVDYCAAAYRHPYGKYVYWGQGTQVTVSS”, which “polyreactivity (PSR sort gate)” value is on record?
The value was “high polyreactivity”.

For “QVQLVESGGGLVQAGGSLRLSCAASGFIFSSYAMGWYRQAPGKERELVASIRRRGGSTYYADSVKGRFTISRDNAKNTVYLQMNSLKPEDTAVYYCAASRVSYGTRFDYWGQGTQVTVSS”, which “polyreactivity (PSR sort gate)” value is on record?
Its value is “high polyreactivity”.

For “QVQLVESGGGLVQAGGSLRLSCAASGFIFSSYTMGWYRQAPGKERELVAAITSRGGSTYYADSVKGRLTISRDNAKNTVYLQMNSLKPEDTAVYDWNARRIPYSPYGVHEGYYWGLGTQVTVSS”, which “polyreactivity (PSR sort gate)” value is on record?
Its value is “high polyreactivity”.

With “QVQLVESGGGLVQAGGSLRLSCAASGFIFSTNAMGWYRQAPGKERELVATIRSGGSTNYADSVKGRFTISRDNAKNTVYLQMNSLKPEDTAVYYCAAEPPGSTYEGGYWGQGTQVTVSS” as the sequence, how does the “polyreactivity (PSR sort gate)” value read?
The value was “low polyreactivity”.

Which “polyreactivity (PSR sort gate)” value does the source give for “QVQLVESGGGLVQAGGSLRLSCAASGFIFSWYAMGWYRQAPGKERELVARISSSGGNTYYADSVKGRFTISRDNAKNTVYLQMNSLKPEDTAVYYCAAGYRYRYDYWGQGTQVTVSS” here?
Its value is “high polyreactivity”.

Which “polyreactivity (PSR sort gate)” value does the source give for “QVQLVESGGGLVQAGGSLRLSCAASGFIFSYAMGWYRQAPGKERELVAAISKSGGRTYYADSVKGRFTISRDNAKNTVYLQMNSLKPEDTAVYYCAVRDLHLSIARYNYWGQGTQVTVSS” here?
The value was “high polyreactivity”.

Which “polyreactivity (PSR sort gate)” value does the source give for “QVQLVESGGGLVQAGGSLRLSCAASGFIFSYNAMGWYREAPGKERELVAAISSRGGSTYYADSVKGRFTISRDNAKNTVYLQMNSLKPEDTADYYCAVASRRVYTAPYDYWGQGTQVTVSS” here?
The value was “high polyreactivity”.

Which “polyreactivity (PSR sort gate)” value does the source give for “QVQLVESGGGLVQAGGSLRLSCAASGFIFSYNAMGWYRQAPGKERELVAAISSSGGTTYYADSVKGRFTISRDKAKNTVYLQMNSLKPEDTAVYYCNKTTHSRTFRYDYWAQGTQVTVSS” here?
Its value is “low polyreactivity”.

Which “polyreactivity (PSR sort gate)” value does the source give for “QVQLVESGGGLVQAGGSLRLSCAASGFIFSYNAMGWYRQAPGSERELVAAITRRTASTYYADSVKGRFTISRDNAKNTVYFQMNSLKPEDTAVYYCAADSSLKRPYYAGYYYWGQGTQVTVSS” here?
The value was “high polyreactivity”.

Which “polyreactivity (PSR sort gate)” value does the source give for “QVQLVESGGGLVQAGGSLRLSCAASGFIFSYYAMGLYRQAPGKERELVAAIDYSGGSTNYADSVKGRFTISRDIAKYTVYLQMNSLKPEDTAVYYCNAEYTWHRGYDYWGQGTQVTVSS” here?
Its value is “low polyreactivity”.

For “QVQLVESGGGLVQAGGSLRLSCAASGFIFSYYAMGWYRQAPGKEREFVAAISRRGGSTYYADSVKGRFTISRDNAKNTVYLQMISLKPDDSAVYYCARRRTSTAVREHYYRDWYGYDYWGQGTQVTVSS”, which “polyreactivity (PSR sort gate)” value is on record?
The value was “high polyreactivity”.

For “QVQLVESGGGLVQAGGSLRLSCAASGFIFSYYAMGWYRQAPGKERELVAAITVRGGSTYYADSVKGRFTISRDNAKNTVYLQRNCLKPEDTAVYYCNTVHGLWRRYNYWGQGTQVTVSS”, which “polyreactivity (PSR sort gate)” value is on record?
Its value is “high polyreactivity”.

With “QVQLVESGGGLVQAGGSLRLSCAASGFIFSYYAMGWYRQAPGKERELVAAITWDGGSTYYADSVKGRFTISRDNAKNTVYLQMNSLKPEDTAVYYCNAYYYYRRPLEGGYGGQGTQVTVSS” as the sequence, how does the “polyreactivity (PSR sort gate)” value read?
The value was “low polyreactivity”.

For “QVQLVESGGGLVQAGGSLRLSCAASGFIFSYYAMGWYRQAPGKEWELVAAISQNVAGTYYADSVKGRFTISRDNAKNTVYLQMNSLKPEDTAVYYCNARPYSGKYYYWGQGTQVTVSS”, which “polyreactivity (PSR sort gate)” value is on record?
The value was “high polyreactivity”.

For “QVQLVESGGGLVQAGGSLRLSCAASGFIFSYYAMGWYRQEPGKERELVAAITSNGGITYYADSVKGRFTISRDNAKNTVYLQMNSLKPEDTAVYYCNAYYTSTSYDYWGQGTQVTVSS”, which “polyreactivity (PSR sort gate)” value is on record?
Its value is “high polyreactivity”.

With “QVQLVESGGGLVQAGGSLRLSCAASGFIFTDNAMGWYRQAPGKEREFVAAITYSGGSTYYADSVKGRFTISRDNAKNTVYLQMNSLKPEDTAVYYCNKDVFPAPGGVTAYEYEYWGQGTQVTVSS” as the sequence, how does the “polyreactivity (PSR sort gate)” value read?
Its value is “low polyreactivity”.

For “QVQLVESGGGLVQAGGSLRLSCAASGFIFTEYAMGWYRQAPGKERELVAAISRSDDGTHYADSVKGRFTISRDYAKNTVYLPMNSLKPEDTAVYDCAAYRDYQYDYWGQGTQVTVSS”, which “polyreactivity (PSR sort gate)” value is on record?
The value was “low polyreactivity”.

With “QVQLVESGGGLVQAGGSLRLSCAASGFIFTGYAMGWYRQAPGTEREFVAAISYSGGSTYADSVKGRFTISRDNAKNTVYLQMNSLKPEDTAVYYCNARQGLWRYTAENDYWGQGTHVTVSS” as the sequence, how does the “polyreactivity (PSR sort gate)” value read?
Its value is “low polyreactivity”.

Which “polyreactivity (PSR sort gate)” value does the source give for “QVQLVESGGGLVQAGGSLRLSCAASGFIFTIYAMGWYRQAPGKERELVAAISSGGSTTYADSVKGRFTISRDNAKNTVYLQMNSLKPEDTAVYYCNADYQYNRYSRVVGGHYVGWYGYWGQGTQVTVSS” here?
The value was “low polyreactivity”.

With “QVQLVESGGGLVQAGGSLRLSCAASGFIFTIYAMGWYRQAPGKERELVAAITWNGGRTYYADSVKGRFTISRDNAKNTVYLQMNSLKAEDTAVYYCAARYGRAYDYWGQGTQVTVSS” as the sequence, how does the “polyreactivity (PSR sort gate)” value read?
Its value is “high polyreactivity”.

For “QVQLVESGGGLVQAGGSLRLSCAASGFIFTKNAMGWYRQAPGKDRVLVAAITSSGGNTYYADSVKRRFTIARDNAKNTVYLQMNSLKPEDTAVYYCAASRFLRMYWGQGTQVTVSS”, which “polyreactivity (PSR sort gate)” value is on record?
Its value is “high polyreactivity”.

Which “polyreactivity (PSR sort gate)” value does the source give for “QVQLVESGGGLVQAGGSLRLSCAASGFIFTKYTMGWYRQAPGKERELVAAIRSDGVRTYYADSVKGRFTISRDNAKNTVYLQMNSLKPEDTAVYYCNRVSAVRIGAGDYWGQGTQVTVSS” here?
The value was “high polyreactivity”.

With “QVQLVESGGGLVQAGGSLRLSCAASGFIFTKYTMGWYRQAPGKERELVAAITGRGTSTYADSVKGRFTISRDNAKNTVYLPMNSLIPEDTAVYYCAAVGWFAVFLFSDINGYYLGQGTQVTVSS” as the sequence, how does the “polyreactivity (PSR sort gate)” value read?
The value was “low polyreactivity”.

With “QVQLVESGGGLVQAGGSLRLSCAASGFIFTRNAMAWYRQAPGKEREMVAGISVRGGATYYADSVKGRFTLSRDNAKNSFYLQMNSLKPEDTAVYYCAARYWRGPRYDYWGQGTKVTVSS” as the sequence, how does the “polyreactivity (PSR sort gate)” value read?
Its value is “high polyreactivity”.
